Tests used:
Assay in all cases: SPR; He Ab vs HeCon Ab (GpH7-A5/GpH7-B3/GpL16-k0)=100;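 also: surface plasmon resonance at 25 °C with the test antibody captured on a sensor chip via antigenic peptide, protein L or protein A/G and FcγR flowed over as analyte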
[1] = biological target: T1, FcγRIa extracellular domain, C-terminal His tag (human, UniProt P12314 16-292)
T1 construct: extracellular domain; also called 1a

[2] = biological target: T2, FcγRIIa(R) extracellular domain, C-terminal His tag (human, UniProt P12318 34-217)
T2 construct: extracellular domain; also called 2aR
T2 sequence: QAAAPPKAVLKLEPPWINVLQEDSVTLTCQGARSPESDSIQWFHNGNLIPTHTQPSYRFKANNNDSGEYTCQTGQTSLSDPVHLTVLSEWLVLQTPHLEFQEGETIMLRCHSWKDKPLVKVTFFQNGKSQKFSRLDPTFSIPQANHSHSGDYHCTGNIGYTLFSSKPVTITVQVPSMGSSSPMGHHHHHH

[3] = biological target: T3, FcγRIIa(H) extracellular domain, C-terminal His tag (human, UniProt P12318 34-217)
T3 construct: extracellular domain; also called 2aH
T3 sequence: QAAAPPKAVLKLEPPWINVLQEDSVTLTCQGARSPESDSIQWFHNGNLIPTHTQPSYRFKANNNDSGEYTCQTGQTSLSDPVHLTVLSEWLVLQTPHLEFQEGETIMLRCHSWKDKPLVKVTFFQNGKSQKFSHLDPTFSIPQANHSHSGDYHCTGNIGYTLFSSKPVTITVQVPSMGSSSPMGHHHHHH

[4] = biological target: T4, FcγRIIb extracellular domain, C-terminal His tag (human, UniProt P31994 43-217)
T4 construct: extracellular domain; also called 2b
T4 sequence: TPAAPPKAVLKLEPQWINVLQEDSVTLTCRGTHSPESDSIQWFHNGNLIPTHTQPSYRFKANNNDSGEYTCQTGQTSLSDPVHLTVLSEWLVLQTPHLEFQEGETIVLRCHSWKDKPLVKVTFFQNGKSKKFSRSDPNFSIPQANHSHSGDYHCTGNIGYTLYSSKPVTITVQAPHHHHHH

[5] = biological target: T5, FcγRIIIa extracellular domain, C-terminal His tag (human, UniProt P08637 17-208)
T5 construct: extracellular domain; also called 3a
T5 sequence (P08637 other isoform, or with tags, fused parts or gaps): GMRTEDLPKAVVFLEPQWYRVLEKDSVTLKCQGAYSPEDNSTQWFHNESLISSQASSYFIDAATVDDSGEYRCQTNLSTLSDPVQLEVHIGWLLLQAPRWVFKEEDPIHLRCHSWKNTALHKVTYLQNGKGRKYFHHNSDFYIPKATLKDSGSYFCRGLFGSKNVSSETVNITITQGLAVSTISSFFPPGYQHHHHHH

T1 sequence (P12314 other isoform, or with tags, fused parts or gaps): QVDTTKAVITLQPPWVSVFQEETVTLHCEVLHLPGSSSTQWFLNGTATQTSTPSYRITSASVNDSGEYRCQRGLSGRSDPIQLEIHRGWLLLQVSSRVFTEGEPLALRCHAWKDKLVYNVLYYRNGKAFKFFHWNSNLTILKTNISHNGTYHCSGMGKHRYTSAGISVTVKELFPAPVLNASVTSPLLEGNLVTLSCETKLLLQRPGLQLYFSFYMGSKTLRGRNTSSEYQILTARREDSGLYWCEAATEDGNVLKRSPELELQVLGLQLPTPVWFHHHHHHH

Binder	He/Con 1a [1] [%]	He/Con 2aR [2] [%]	He/Con 2aH [3] [%]	He/Con 2b [4] [%]	He/Con 3a [5] [%]
GpH7-A5/GpH7-B3 variant Y300_01G/GpL16-k0 (antibody, human IgG1, kappa, heterodimerized IgG1, one H chain mutated; also called He Ab; copies: 1 + 1 + 2) heavy 1: not shown heavy 2: not shown light: DIVMTQSPLSLPVTPGEPASISCQASESLVHSNRNTYLHWYLQKPGQSPQLLIYKVSNRFSGVPDRFSGSGSGTDFTLKISRVEAEDVGVYYCSQNTHVPPTFGQGTKVEIERTVAAPSVFIFPPSDEQLKSGTASVVCLLNNFYPREAKVQWKVDNALQSGNSQESVTEQDSKDSTYSLSSTLTLSKADYEKHKVYACEVTHQGLSSPVTKSFNRGEC	110	66.6	82.6	63.2	88.6
GpH7-A5/GpH7-B3 variant Y300_08L/GpL16-k0 (antibody, human IgG1, kappa, heterodimerized IgG1, one H chain mutated; also called He Ab; copies: 1 + 1 + 2) heavy 1: not shown heavy 2: not shown light: DIVMTQSPLSLPVTPGEPASISCQASESLVHSNRNTYLHWYLQKPGQSPQLLIYKVSNRFSGVPDRFSGSGSGTDFTLKISRVEAEDVGVYYCSQNTHVPPTFGQGTKVEIERTVAAPSVFIFPPSDEQLKSGTASVVCLLNNFYPREAKVQWKVDNALQSGNSQESVTEQDSKDSTYSLSSTLTLSKADYEKHKVYACEVTHQGLSSPVTKSFNRGEC	107	96.9	120	96.1	114
GpH7-A5/GpH7-B3 variant Y300_04F/GpL16-k0 (antibody, human IgG1, kappa, heterodimerized IgG1, one H chain mutated; also called He Ab; copies: 1 + 1 + 2) heavy 1: not shown heavy 2: not shown light: DIVMTQSPLSLPVTPGEPASISCQASESLVHSNRNTYLHWYLQKPGQSPQLLIYKVSNRFSGVPDRFSGSGSGTDFTLKISRVEAEDVGVYYCSQNTHVPPTFGQGTKVEIERTVAAPSVFIFPPSDEQLKSGTASVVCLLNNFYPREAKVQWKVDNALQSGNSQESVTEQDSKDSTYSLSSTLTLSKADYEKHKVYACEVTHQGLSSPVTKSFNRGEC	102	103	103	106	100
GpH7-A5/GpH7-B3 variant Y300_14T/GpL16-k0 (antibody, human IgG1, kappa, heterodimerized IgG1, one H chain mutated; also called He Ab; copies: 1 + 1 + 2) heavy 1: not shown heavy 2: not shown light: DIVMTQSPLSLPVTPGEPASISCQASESLVHSNRNTYLHWYLQKPGQSPQLLIYKVSNRFSGVPDRFSGSGSGTDFTLKISRVEAEDVGVYYCSQNTHVPPTFGQGTKVEIERTVAAPSVFIFPPSDEQLKSGTASVVCLLNNFYPREAKVQWKVDNALQSGNSQESVTEQDSKDSTYSLSSTLTLSKADYEKHKVYACEVTHQGLSSPVTKSFNRGEC	105	78.6	104	72.7	92.8
GpH7-A5/GpH7-B3 variant Y300_18N/GpL16-k0 (antibody, human IgG1, kappa, heterodimerized IgG1, one H chain mutated; also called He Ab; copies: 1 + 1 + 2) heavy 1: not shown heavy 2: not shown light: DIVMTQSPLSLPVTPGEPASISCQASESLVHSNRNTYLHWYLQKPGQSPQLLIYKVSNRFSGVPDRFSGSGSGTDFTLKISRVEAEDVGVYYCSQNTHVPPTFGQGTKVEIERTVAAPSVFIFPPSDEQLKSGTASVVCLLNNFYPREAKVQWKVDNALQSGNSQESVTEQDSKDSTYSLSSTLTLSKADYEKHKVYACEVTHQGLSSPVTKSFNRGEC	101	96.2	101	92.7	96
GpH7-A5/GpH7-B3 variant Y300_19Q/GpL16-k0 (antibody, human IgG1, kappa, heterodimerized IgG1, one H chain mutated; also called He Ab; copies: 1 + 1 + 2) heavy 1: not shown heavy 2: not shown light: DIVMTQSPLSLPVTPGEPASISCQASESLVHSNRNTYLHWYLQKPGQSPQLLIYKVSNRFSGVPDRFSGSGSGTDFTLKISRVEAEDVGVYYCSQNTHVPPTFGQGTKVEIERTVAAPSVFIFPPSDEQLKSGTASVVCLLNNFYPREAKVQWKVDNALQSGNSQESVTEQDSKDSTYSLSSTLTLSKADYEKHKVYACEVTHQGLSSPVTKSFNRGEC	106	119	107	142	105
GpH7-A5/GpH7-B3 variant Y300_10E/GpL16-k0 (antibody, human IgG1, kappa, heterodimerized IgG1, one H chain mutated; also called He Ab; copies: 1 + 1 + 2) heavy 1: not shown heavy 2: not shown light: DIVMTQSPLSLPVTPGEPASISCQASESLVHSNRNTYLHWYLQKPGQSPQLLIYKVSNRFSGVPDRFSGSGSGTDFTLKISRVEAEDVGVYYCSQNTHVPPTFGQGTKVEIERTVAAPSVFIFPPSDEQLKSGTASVVCLLNNFYPREAKVQWKVDNALQSGNSQESVTEQDSKDSTYSLSSTLTLSKADYEKHKVYACEVTHQGLSSPVTKSFNRGEC	108	127	108	175	113
GpH7-A5/GpH7-B3 variant Y300_16H/GpL16-k0 (antibody, human IgG1, kappa, heterodimerized IgG1, one H chain mutated; also called He Ab; copies: 1 + 1 + 2) heavy 1: not shown heavy 2: not shown light: DIVMTQSPLSLPVTPGEPASISCQASESLVHSNRNTYLHWYLQKPGQSPQLLIYKVSNRFSGVPDRFSGSGSGTDFTLKISRVEAEDVGVYYCSQNTHVPPTFGQGTKVEIERTVAAPSVFIFPPSDEQLKSGTASVVCLLNNFYPREAKVQWKVDNALQSGNSQESVTEQDSKDSTYSLSSTLTLSKADYEKHKVYACEVTHQGLSSPVTKSFNRGEC	105	103	105	114	102
GpH7-A5/GpH7-B3 variant Y300_11K/GpL16-k0 (antibody, human IgG1, kappa, heterodimerized IgG1, one H chain mutated; also called He Ab; copies: 1 + 1 + 2) heavy 1: not shown heavy 2: not shown light: DIVMTQSPLSLPVTPGEPASISCQASESLVHSNRNTYLHWYLQKPGQSPQLLIYKVSNRFSGVPDRFSGSGSGTDFTLKISRVEAEDVGVYYCSQNTHVPPTFGQGTKVEIERTVAAPSVFIFPPSDEQLKSGTASVVCLLNNFYPREAKVQWKVDNALQSGNSQESVTEQDSKDSTYSLSSTLTLSKADYEKHKVYACEVTHQGLSSPVTKSFNRGEC	101	73.1	74.2	67.4	63.7
GpH7-A5/GpH7-B3 variant Y300_07I/GpL16-k0 (antibody, human IgG1, kappa, heterodimerized IgG1, one H chain mutated; also called He Ab; copies: 1 + 1 + 2) heavy 1: not shown heavy 2: not shown light: DIVMTQSPLSLPVTPGEPASISCQASESLVHSNRNTYLHWYLQKPGQSPQLLIYKVSNRFSGVPDRFSGSGSGTDFTLKISRVEAEDVGVYYCSQNTHVPPTFGQGTKVEIERTVAAPSVFIFPPSDEQLKSGTASVVCLLNNFYPREAKVQWKVDNALQSGNSQESVTEQDSKDSTYSLSSTLTLSKADYEKHKVYACEVTHQGLSSPVTKSFNRGEC	102	90.9	120	97.4	103
GpH7-A5/GpH7-B3 variant Y300_03V/GpL16-k0 (antibody, human IgG1, kappa, heterodimerized IgG1, one H chain mutated; also called He Ab; copies: 1 + 1 + 2) heavy 1: not shown heavy 2: not shown light: DIVMTQSPLSLPVTPGEPASISCQASESLVHSNRNTYLHWYLQKPGQSPQLLIYKVSNRFSGVPDRFSGSGSGTDFTLKISRVEAEDVGVYYCSQNTHVPPTFGQGTKVEIERTVAAPSVFIFPPSDEQLKSGTASVVCLLNNFYPREAKVQWKVDNALQSGNSQESVTEQDSKDSTYSLSSTLTLSKADYEKHKVYACEVTHQGLSSPVTKSFNRGEC	110	96.8	109	96.5	83.8
GpH7-A5/GpH7-B3 variant Y300_02A/GpL16-k0 (antibody, human IgG1, kappa, heterodimerized IgG1, one H chain mutated; also called He Ab; copies: 1 + 1 + 2) heavy 1: not shown heavy 2: not shown light: DIVMTQSPLSLPVTPGEPASISCQASESLVHSNRNTYLHWYLQKPGQSPQLLIYKVSNRFSGVPDRFSGSGSGTDFTLKISRVEAEDVGVYYCSQNTHVPPTFGQGTKVEIERTVAAPSVFIFPPSDEQLKSGTASVVCLLNNFYPREAKVQWKVDNALQSGNSQESVTEQDSKDSTYSLSSTLTLSKADYEKHKVYACEVTHQGLSSPVTKSFNRGEC	106	92.9	104	90.5	88.1
GpH7-A5/GpH7-B3 variant Y300_13S/GpL16-k0 (antibody, human IgG1, kappa, heterodimerized IgG1, one H chain mutated; also called He Ab; copies: 1 + 1 + 2) heavy 1: not shown heavy 2: not shown light: DIVMTQSPLSLPVTPGEPASISCQASESLVHSNRNTYLHWYLQKPGQSPQLLIYKVSNRFSGVPDRFSGSGSGTDFTLKISRVEAEDVGVYYCSQNTHVPPTFGQGTKVEIERTVAAPSVFIFPPSDEQLKSGTASVVCLLNNFYPREAKVQWKVDNALQSGNSQESVTEQDSKDSTYSLSSTLTLSKADYEKHKVYACEVTHQGLSSPVTKSFNRGEC	105	72.4	97.8	70.4	80.3
GpH7-A5/GpH7-B3 variant Y300_09D/GpL16-k0 (antibody, human IgG1, kappa, heterodimerized IgG1, one H chain mutated; also called He Ab; copies: 1 + 1 + 2) heavy 1: not shown heavy 2: not shown light: DIVMTQSPLSLPVTPGEPASISCQASESLVHSNRNTYLHWYLQKPGQSPQLLIYKVSNRFSGVPDRFSGSGSGTDFTLKISRVEAEDVGVYYCSQNTHVPPTFGQGTKVEIERTVAAPSVFIFPPSDEQLKSGTASVVCLLNNFYPREAKVQWKVDNALQSGNSQESVTEQDSKDSTYSLSSTLTLSKADYEKHKVYACEVTHQGLSSPVTKSFNRGEC	106	105	101	122	104
GpH7-A5/GpH7-B3 variant Y300_06M/GpL16-k0 (antibody, human IgG1, kappa, heterodimerized IgG1, one H chain mutated; also called He Ab; copies: 1 + 1 + 2) heavy 1: not shown heavy 2: not shown light: DIVMTQSPLSLPVTPGEPASISCQASESLVHSNRNTYLHWYLQKPGQSPQLLIYKVSNRFSGVPDRFSGSGSGTDFTLKISRVEAEDVGVYYCSQNTHVPPTFGQGTKVEIERTVAAPSVFIFPPSDEQLKSGTASVVCLLNNFYPREAKVQWKVDNALQSGNSQESVTEQDSKDSTYSLSSTLTLSKADYEKHKVYACEVTHQGLSSPVTKSFNRGEC	106	105	116	110	106

Source: patent publication US20260167699A1 (Chugai, published 2026)
